Data on twelve variants can be found in IntAct's records for PubMed 35512704.

The chains are these.
B1: Mothers against decapentaplegic homolog 4 (Homo sapiens), Q13485 (parent)
chain: MDNMSITNTPTSNDACLSIVHSLMCHRQGGESETFAKRAIESLVKKLKEKKDELDSLITAITTNGAHPSKCVTIQRTLDGRLQVAGRKGFPHVIYARLWRWPDLHKNELKHVKYCQYAFDLKCDSVCVNPYHYERVVSPGIDLSGLTLQSNAPSSMMVKDEYVHDFEGQPSLSTEGHSIQTIQHPPSNRASTETYSTPALLAPSESNATSTANFPNIPVASTSQPASILGGSHSEGLLQIASGPQPGQQQNGFTGQPATYHHNSTTTWTGSRTAPYTPNLPHHQNGHLQHHPPMPPHPGHYWPVHNELAFQPPISNHPAPEYWCSIAYFEMDVQVGETFKVPSSCPIVTVDGYVDPSGGDRFCLGQLSNVHRTEAIERARLHIGKGVQLECKGEGDVWVRCLSDHAVFVQSYYLDREAGRAPGDAVHKIYPSAYIKVFDLRQCHRQMQQQAATAQAAAAAQAAAVAGNIPGPGSVGGIAPAISLSAAAGIGVDDLRRLCILRMSFVKGWGPDYPRQSIKETPCWIEIHLHRALQLLDEVLHTMPIADPQPLD
partner: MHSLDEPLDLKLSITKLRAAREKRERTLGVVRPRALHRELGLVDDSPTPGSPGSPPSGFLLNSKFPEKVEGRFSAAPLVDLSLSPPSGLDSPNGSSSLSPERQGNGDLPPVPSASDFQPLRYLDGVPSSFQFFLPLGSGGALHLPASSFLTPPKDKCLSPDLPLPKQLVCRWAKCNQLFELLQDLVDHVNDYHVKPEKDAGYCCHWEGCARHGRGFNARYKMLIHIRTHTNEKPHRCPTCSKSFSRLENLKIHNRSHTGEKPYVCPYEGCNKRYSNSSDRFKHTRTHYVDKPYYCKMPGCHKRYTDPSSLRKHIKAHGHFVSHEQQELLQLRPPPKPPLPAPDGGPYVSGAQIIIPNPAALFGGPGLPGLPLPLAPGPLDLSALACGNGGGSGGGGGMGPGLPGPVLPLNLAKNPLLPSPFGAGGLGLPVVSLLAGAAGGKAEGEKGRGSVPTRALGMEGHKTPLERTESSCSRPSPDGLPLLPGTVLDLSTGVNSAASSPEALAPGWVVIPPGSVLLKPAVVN
B2: Mothers against decapentaplegic homolog 4 (Homo sapiens), Q13485 (parent)
chain: B1 chain
partner: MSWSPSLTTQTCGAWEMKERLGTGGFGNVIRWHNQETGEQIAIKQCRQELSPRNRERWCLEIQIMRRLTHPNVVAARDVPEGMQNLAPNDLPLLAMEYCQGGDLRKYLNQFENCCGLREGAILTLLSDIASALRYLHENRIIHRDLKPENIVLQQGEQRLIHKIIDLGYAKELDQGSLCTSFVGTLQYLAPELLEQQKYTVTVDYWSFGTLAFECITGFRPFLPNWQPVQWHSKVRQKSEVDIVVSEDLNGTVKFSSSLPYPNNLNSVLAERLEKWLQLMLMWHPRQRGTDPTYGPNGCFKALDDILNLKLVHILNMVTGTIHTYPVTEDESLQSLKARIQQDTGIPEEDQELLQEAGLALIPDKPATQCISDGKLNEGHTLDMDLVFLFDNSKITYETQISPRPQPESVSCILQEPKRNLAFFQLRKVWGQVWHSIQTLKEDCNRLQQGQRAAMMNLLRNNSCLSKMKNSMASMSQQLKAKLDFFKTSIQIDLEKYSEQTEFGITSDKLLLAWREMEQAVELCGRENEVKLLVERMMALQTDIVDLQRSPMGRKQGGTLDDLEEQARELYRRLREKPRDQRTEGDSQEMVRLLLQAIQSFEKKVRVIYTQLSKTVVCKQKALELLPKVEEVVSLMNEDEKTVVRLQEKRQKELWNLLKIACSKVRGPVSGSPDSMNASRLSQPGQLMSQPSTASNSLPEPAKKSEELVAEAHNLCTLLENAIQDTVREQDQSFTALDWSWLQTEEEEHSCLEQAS
B3: 14-3-3 protein zeta/delta (Homo sapiens), P63104 (parent)
chain: MDKNELVQKAKLAEQAERYDDMAACMKSVTEQGAELSNEERNLLSVAYKNVVGARRSSWRVVSSIEQKTEGAEKKQQMAREYREKIETELRDICNDVLSLLEKFLIPNASQAESKVFYLKMKGDYYRYLAEVAAGDDKKGIVDQSQQAYQEAFEISKKEMQPTHPIRLGLALNFSVFYYEILNSPEKACSLAKTAFDEAIAELDTLSEESYKDSTLIMQLLRDNLTLWTSDTQGDEAEAGEGGEN
B4: Mothers against decapentaplegic homolog 4 (Homo sapiens), Q13485 (parent)
chain: B1 chain
partner: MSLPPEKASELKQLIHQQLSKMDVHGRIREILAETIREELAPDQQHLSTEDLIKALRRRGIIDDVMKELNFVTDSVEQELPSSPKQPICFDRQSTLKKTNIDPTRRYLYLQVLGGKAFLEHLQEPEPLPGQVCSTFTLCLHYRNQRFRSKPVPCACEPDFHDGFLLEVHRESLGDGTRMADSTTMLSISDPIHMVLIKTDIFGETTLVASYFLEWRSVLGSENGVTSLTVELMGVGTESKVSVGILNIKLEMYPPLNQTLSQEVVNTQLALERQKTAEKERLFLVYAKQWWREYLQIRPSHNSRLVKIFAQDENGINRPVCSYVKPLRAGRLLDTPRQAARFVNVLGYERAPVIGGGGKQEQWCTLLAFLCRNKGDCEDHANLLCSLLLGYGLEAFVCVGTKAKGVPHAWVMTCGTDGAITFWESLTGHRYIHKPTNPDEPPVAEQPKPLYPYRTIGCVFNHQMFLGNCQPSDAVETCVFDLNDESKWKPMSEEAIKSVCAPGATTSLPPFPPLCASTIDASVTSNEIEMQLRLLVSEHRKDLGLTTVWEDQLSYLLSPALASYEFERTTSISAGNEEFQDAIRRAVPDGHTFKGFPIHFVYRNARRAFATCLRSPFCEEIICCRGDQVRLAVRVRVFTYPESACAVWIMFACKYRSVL
B5: Mothers against decapentaplegic homolog 4 (Homo sapiens), Q13485 (parent)
chain: B1 chain
partner: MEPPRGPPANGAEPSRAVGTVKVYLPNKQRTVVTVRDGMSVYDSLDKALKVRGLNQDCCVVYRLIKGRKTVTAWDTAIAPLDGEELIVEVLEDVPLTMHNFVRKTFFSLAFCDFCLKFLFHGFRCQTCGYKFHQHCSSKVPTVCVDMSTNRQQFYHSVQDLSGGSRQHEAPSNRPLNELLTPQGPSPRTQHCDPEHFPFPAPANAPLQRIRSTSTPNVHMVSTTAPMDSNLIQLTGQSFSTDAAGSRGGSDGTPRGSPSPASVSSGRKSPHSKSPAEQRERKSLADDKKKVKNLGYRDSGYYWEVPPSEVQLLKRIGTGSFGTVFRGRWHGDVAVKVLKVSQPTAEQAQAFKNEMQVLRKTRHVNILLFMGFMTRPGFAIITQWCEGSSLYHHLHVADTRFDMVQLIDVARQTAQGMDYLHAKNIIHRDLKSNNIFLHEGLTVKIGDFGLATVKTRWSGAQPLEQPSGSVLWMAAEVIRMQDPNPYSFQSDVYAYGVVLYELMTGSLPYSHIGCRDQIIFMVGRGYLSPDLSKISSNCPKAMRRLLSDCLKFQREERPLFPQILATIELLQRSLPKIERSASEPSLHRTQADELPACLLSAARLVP

In the first test the parent is B1. Conditions: with glis2_human GLIS2, Q9BZE0.
With R361H, the “effect of a mutation on the interaction” value is listed as “with no effect”.

The variants in another test derive from B1. The conditions noted are these: with glis2_human GLIS2, Q9BZE0. The source holds these as a separate data set.
On to R361C, for which the “effect of a mutation on the interaction” value is reported as “with no effect”.

The next test covers variants of B2. The conditions noted are these: with ikkb_human IKBKB.
Regarding D351H, the “effect of a mutation on the interaction” value is “with no effect”.

The next test covers variants of B2. The conditions noted are these: with ikkb_human IKBKB. The source holds these as a separate data set.
Turning to R361C, the “effect of a mutation on the interaction” value is “with no effect”.

The next test covers variants of B2. Conditions: with ikkb_human IKBKB. The source holds these as a separate data set.
With R361H, the “effect of a mutation on the interaction” value is reported as “with no effect”.

The next test covers variants of B2. Conditions: with ikkb_human IKBKB. The source holds these as a separate data set.
For the variant G386D, the “effect of a mutation on the interaction” value is “with no effect”.

In a further test the parent is B3. The conditions noted are these: with braf_human BRAF.
Take K49E: the “effect of a mutation on the interaction” value is “disrupting interaction strength”.

In a further test the parent is B4. Conditions: with cep76_human CEP76, Q8TAP6.
Turning to D351H, the “effect of a mutation on the interaction” value is “with no effect”.

The variants in a further test derive from B4. The conditions noted are these: with cep76_human CEP76, Q8TAP6. This is another data set of the same source.
Regarding R361H, the “effect of a mutation on the interaction” value is on record as “with no effect”.

The variants in a further test derive from B4. Conditions: with cep76_human CEP76, Q8TAP6. The source holds these as a separate data set.
In the case of R361C, the “effect of a mutation on the interaction” value is “with no effect”.

The variants in the next test derive from B5. The conditions noted are these: with araf_human ARAF.
Regarding D351H, the “effect of a mutation on the interaction” value is on record as “with no effect”.

The variants in another test derive from B5. Conditions: with araf_human ARAF. The source holds these as a separate data set.
Consider G386D, for which the “effect of a mutation on the interaction” value is given as “with no effect”.

Variants of B5 are the subject of a further test. Conditions: with araf_human ARAF. The source holds these as a separate data set.
Regarding G386D, the “effect of a mutation on the interaction” value is given as “increasing interaction strength”.
